Test results: PMC4636054

Biological target: LlaBIII (UniProt A0A0M3KL05 1-1578)
Test: X-ray crystallography

B1: LlaBIII 28 bp DNA (dsDNA)
DNA 1: GCTCTAGCTAATAGACTGAGCCGAGGTG
DNA 2: CACCTCGGCTCAGTCTATTAGCTAGAGC
B1: binds.
